Measured values from article PMC5603727.

Columns and labels:
[1] = target: T1, Roquin-1 ROQ domain (SPR, EMSA wild type) (UniProt Q4VGL6 171-326); assay: SPR; 2 mM Mg2+, 10 C; SPR: 10 mM HEPES pH 7.4, 150 mM NaCl, 2 mM MgCl2, 0.005% Tween 20, 10 C, ROQ immobilized; EMSA: 20 mM HEPES pH 7.4, 50 mM NaCl, 1 mM MgCl2, 1 mM DTT, 1 ug/ul BS
T1 sequence: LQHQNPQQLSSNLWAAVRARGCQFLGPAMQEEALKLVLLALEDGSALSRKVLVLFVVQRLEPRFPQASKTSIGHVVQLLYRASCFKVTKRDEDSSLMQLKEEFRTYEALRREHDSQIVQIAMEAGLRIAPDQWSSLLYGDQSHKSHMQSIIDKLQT

Roquin-1 ROQ (171-326) = target: T2, Roquin-1 ROQ (171-326) (UniProt Q4VGL6 171-326); assay: NMR; 298 K; SPR: 10 mM HEPES pH 7.4, 150 mM NaCl, 2 mM MgCl2, 0.005% Tween 20, 10 C, ROQ immobilized; EMSA: 20 mM HEPES pH 7.4, 50 mM NaCl, 1 mM MgCl2, 1 mM DTT, 1 ug/ul BS
T2 sequence: T1 sequence

Roquin-1 N-term = target: T3, Roquin-1 N-term (UniProt Q4VGL6 2-440); assay: EMSA; SPR: 10 mM HEPES pH 7.4, 150 mM NaCl, 2 mM MgCl2, 0.005% Tween 20, 10 C, ROQ immobilized; EMSA: 20 mM HEPES pH 7.4, 50 mM NaCl, 1 mM MgCl2, 1 mM DTT, 1 ug/ul BS
T3 sequence: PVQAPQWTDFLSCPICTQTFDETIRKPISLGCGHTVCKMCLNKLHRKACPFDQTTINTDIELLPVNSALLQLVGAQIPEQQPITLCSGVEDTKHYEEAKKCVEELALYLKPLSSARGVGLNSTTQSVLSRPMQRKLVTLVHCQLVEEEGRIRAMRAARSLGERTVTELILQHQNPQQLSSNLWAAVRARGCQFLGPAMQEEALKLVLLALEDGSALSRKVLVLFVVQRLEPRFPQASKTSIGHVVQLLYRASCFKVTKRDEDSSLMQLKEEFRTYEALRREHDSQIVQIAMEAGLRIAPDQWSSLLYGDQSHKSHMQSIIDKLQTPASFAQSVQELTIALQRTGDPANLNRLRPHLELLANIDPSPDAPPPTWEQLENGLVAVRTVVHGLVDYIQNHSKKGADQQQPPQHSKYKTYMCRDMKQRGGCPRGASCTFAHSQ

Roquin-1 ROQ (147-326) = target: T4, Roquin-1 ROQ (147-326) (UniProt Q4VGL6 147-326); assay: as above
T4 sequence: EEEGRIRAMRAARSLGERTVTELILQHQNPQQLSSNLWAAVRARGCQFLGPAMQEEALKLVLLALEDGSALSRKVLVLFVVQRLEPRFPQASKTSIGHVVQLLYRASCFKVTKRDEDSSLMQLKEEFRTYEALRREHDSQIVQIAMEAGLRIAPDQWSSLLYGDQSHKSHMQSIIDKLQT

B1: Tnf CDE SL (structured_RNA)
RNA: ACAUGUUUUCUGUGAAAACGGAG
- Kd [1]: 42 ± 19 nM

B2: Ox40 ADE-like Mut3 (U11A,U13G) (structured_RNA)
RNA: UCCACACCGUACGAGGUGCUGG
- binding result [1]: no binding

B3: SELEX-derived ADE SL (structured_RNA)
RNA: UGACUGCGUUUUAGGAGUUA
- binding result (Roquin-1 ROQ (171-326)): binds

B4: Ox40 CDE-like SL (structured_RNA)
RNA: CUAUGUAUGCUAUGCAUACUACC
- binding result (Roquin-1 N-term): binds
- binding result (Roquin-1 ROQ (147-326)): binds

B5: Ox40 ADE-like Mut2 (G9C) (structured_RNA)
RNA: UCCACACCCUUCUAGGUGCUGG
- binding result [1]: no binding

B6: Ox40 ADE-like SL (structured_RNA)
RNA: UCCACACCGUUCUAGGUGCUGG
- Kd [1]: 81 ± 22 nM

B7: Ox40 ADE-like Mut4 (C8A,G15U) (structured_RNA)
RNA: UCCACACAGUUCUAUGUGCUGG
- Kd [1]: 234 ± 63 nM
